B1: INTS3 (parent)
chain: EEITEESLEESVGKPLYLIFRNLC
B2: HSP90AB1 (parent)
chain: YHTSQSGDEMTSLSEYVSRMKETQ

Variants of: B1
Test: protein stability index of a GFP-peptide fusion (GPS, HEK-293T) (PSI 1-6); higher = more stable
Settings: c terminus: a fixed tail appended
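Further: lentivirally expressed fusions sorted by FACS into six bins by GFP to DsRed ratio, PSI derived from sequencing read proportions per bin multiplied by bin number.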

Protein stability index: each site, then its substitutions
K14: F 2.25, Q 3.19, W 2.39, R 3.31, E 3.54, S 2.94, P 3.67, T 3.38, A 2.96, I 2.78, D 3.48, N 3.52, H 3.2, Y 2.47, G 2.96, V 2.6, L 3.3, C 3.5, M 2.48
R21: V 2.09, G 3.1, S 2.95, F 2.03, A 2.77, E 2.64, W 2.1, T 2.61, N 2.96, Q 2.77, H 3.08, K 2.61, D 3.46, L 1.9, I 1.63, Y 2.03, C 2.62, M 2.1, P 3.53
P15: A 1.25, F 1.97, K 1.93, V 1.77, G 2, M 2, Y 1.74, E 2.14, C 2.05, S 2.02, L 1.85, W 2.06, D 3.32, I 2.17, N 2.29, R 2.12, Q 1.52, H 2.24, T 2.06
G13: K 2.44, L 2.23, Y 2.14, V 1.98, T 2.46, W 1.79, E 3.12, S 2.36, I 1.81, R 2.7, F 2.28, Q 3.11, N 2.64, H 2.23, C 2.37, A 2.88, M 2.5, D 2.88, P 3.31
V12: S 3.54, K 3.54, G 3.12, Y 2.36, E 3.36, T 3.13, Q 3.34, W 2.47, P 2.94, A 3.26, R 2.86, H 3.28, I 2.51, L 2.5, C 2.55, F 2.56, D 3.63, N 2.95, M 2.26
I19: M 3.06, E 3.9, Q 4, P 4.17, Y 2.75, K 3.66, N 3.92, T 3.41, D 3.89, G 3.67, F 2.3, S 3.33, V 3.16, R 3.7, W 2.91, C 3.62, H 3.85, A 3.73, L 2.86
N22: V 1.55, H 2.64, K 2.56, I 2.05, E 2.8, S 2.79, G 2.19, D 3.4, L 3.01, T 2.15, C 2.83, P 2.54, F 2.94, Q 2.42, W 1.68, R 2.96, M 2.33, A 2.26, Y 2.06
L18: D 3.35, E 3.12, A 2.92, N 3.38, V 2.7, S 3.37, R 2.82, T 3.37, Y 2.93, F 2.3, W 2.16, H 3.4, C 2.7, M 3.38, P 3.69, G 3.71, I 2.72, Q 3.21, K 3.1
C24: L 2.16, Q 2.19, Y 2.32, P 2.62, K 3.11, I 2.32, M 2.7, R 3.02, A 2.87, D 3.48, S 2.55, H 2.88, T 2.66, G 2.54, V 1.68, E 3.54, N 3.33, W 2.08, F 2.99
Y17: C 3.12, H 3.69, P 4.11, Q 2.92, M 2.85, A 3.32, L 2.28, D 4.25, I 2.62, E 3.33, N 3.46, G 3.59, K 4.07, T 3.22, S 2.85, W 2.84, F 2.73, V 2.68, R 2.61
S11: Y 2.58
F20: H 3.46, K 4.46, S 3.77, L 2.37, V 2.55, Q 3.97, P 4.07, G 4.07, R 4.23, C 3.32, W 2.35, I 2.88, E 3.53, M 3.1, N 4.33, A 2.82, T 3.6, D 4.48, Y 2.71
L23: H 3.19, C 3.54, M 2.74, F 3.14, Y 2.68, I 2.63, S 3.67, R 3.47, A 3.74, K 4.52, D 3.75, Q 4.17, N 3.47, V 3.39, T 3.4, W 2.85, P 3.82, G 3.62, E 3.98
L16: A 2.99, T 3.23, G 3.38, K 3.39, N 3.62, C 2.68, I 2.56, S 3.29, W 2.41, F 3.35, P 3.52, R 3.38, Y 2.78, D 4.26, H 3.09, V 2.93, Q 3.69, E 3.26, M 2.92

Variants of: B2
Test: as above
Settings: c terminus: a fixed tail appended

Protein stability index, by site and new letter:
Q5: M 3.67, D 4.45, W 1.98, G 3.84, N 3.39, E 3.79, H 3.67, I 2.64, P 3.34, T 3.91, L 2.83, R 3, A 3.66, S 3.55, F 2.35, C 3.17
T3: D 4.53, I 3.18, G 3.41, Q 3.66, V 2.96, P 2.81, K 3.48, C 3.22, A 3.26, M 3.12, S 3.58, N 3.42, F 2.96, E 3.07, H 3.67, R 3.8, W 1.53
Y1: K 4.29, Q 4.61, D 4.48, C 4.49, S 4.67, T 5.02, W 4.2, R 4.14, L 4.84, N 4.77, V 4.81, G 4.26, H 4.97, E 4.97, I 4.49, P 5.09, A 4.7, M 4.06, F 3.68
S4: A 3.86, T 3.99, V 3.12, G 3.02, K 2.07, L 2.48, I 2.51, E 4.38, W 1.96, H 3.38, D 3.49, C 3.56, Q 3.34, N 3.39, Y 2.21, M 3.61
H2: E 4.56, Y 3.15, S 4.42, W 3.52, A 2.87, C 3.57, V 2.83, T 4.67, I 3.46, F 4.26, N 3.92, K 4.66, D 4.45, L 4.15, Q 3.94, G 4.62, M 3.61, P 5

— the supplement of paper PMC10567573
